# Source: US20050054023
# Assays:
# [1] = tested on: T1, TH (rat) Ser19 peptide RRAVSEQDAK
# T1 sequence: RRAVSEQDAK
# [2] = tested on: T2, TH (rat) Ser8 peptide PTPSAPSPQPK
# T2 sequence: PTPSAPSPQPK
# [3] = tested on: T3, EGF RECEPTOR (Thr669) peptide RRELVEPLTPSGEA
# T3 sequence: RRELVEPLTPSGEA
# [4] = tested on: T4, rat TH-Ser31 peptide KQAEAVTSPR
# T4 sequence: KQAEAVTSPR
# [5] = tested on: T5, MBPtide (Thr97) APRTPGGRR
# T5 sequence: APRTPGGR
# [6] = tested on: T6, TH (rat) Ser40 peptide GRRQSLIEDAR
# T6 sequence: GRRQSLIEDAR
# [7] = tested on: T7, type 1 human TH-Ser31 peptide YQAEAIMSPRFIGRRQ
# T7 sequence: YQAEAIMSPRFIGRRQ
# [8] = tested on: T8, rat TH-Ser31 peptide EAVTSPRFIGRR
# T8 sequence: EAVTSPRFIGRR
# [9] = tested on: T9, type 1 human TH-Ser31 peptide EAIMSPRFIGRR
# T9 sequence: EAIMSPRFIGRR
# [10] = tested on: T10, peptide YQATGPLSPGFRR-NH2
# T10 sequence: YQATGPLSPGFRR
# peptide QATGPLSPGFRR-NH2 = tested on: T11, peptide QATGPLSPGFRR-NH2
# T11 sequence: QATGPLSPGFRR
# [11] = tested on: T12, rat TH-Ser31 peptide AVTSPRFIGRR
# T12 sequence: AVTSPRFIGRR
# [12] = tested on: T13, type 1 human TH-Ser31 peptide EAIMSPRFK
# T13 sequence: EAIMSPRFK
# [13] = tested on: T14, type 2 human TH-Ser31 peptide EAIMVRGQSPRFK
# T14 sequence: EAIMVRGQSPRFK
# [14] = tested on: T15, type 1 human TH-Ser31 peptide AIMSPRFIGRR
# T15 sequence: AIMSPRFIGRR
# [15] = tested on: T16, type 1 human TH-Ser31 peptide QAEAIMSPRFGRR-NH2
# T16 sequence: QAEAIMSPRFGRR
# [16] = tested on: T17, type 1 human TH-Ser31 peptide YQAEAIMSPRFIGRR-NH2
# T17 sequence: YQAEAIMSPRFIGRR
# [17] = tested on: T18, type 2 human TH-Ser31 peptide YIMVRGQSPR
# T18 sequence: YIMVRGQSPR
# [18] = tested on: T19, type 2 human TH-Ser31 peptide IMVRGQSPR
# T19 sequence: IMVRGQSPR
# ERKtide = tested on: T20, ERKtide
# T20 sequence: ATGPLSPFGRR
# [19] = tested on: T21, peptide QATGPLSPGPFRR-NH2
# T21 sequence: QATGPLSPGPFRR
# [20] = tested on: T22, peptide YQATGPLSPGPFRR-NH2
# T22 sequence: YQATGPLSPGPFRR
# Chain of extracellular signal-regulated protein kinase 1 (purified, activated ERK1) (P27361 2-379): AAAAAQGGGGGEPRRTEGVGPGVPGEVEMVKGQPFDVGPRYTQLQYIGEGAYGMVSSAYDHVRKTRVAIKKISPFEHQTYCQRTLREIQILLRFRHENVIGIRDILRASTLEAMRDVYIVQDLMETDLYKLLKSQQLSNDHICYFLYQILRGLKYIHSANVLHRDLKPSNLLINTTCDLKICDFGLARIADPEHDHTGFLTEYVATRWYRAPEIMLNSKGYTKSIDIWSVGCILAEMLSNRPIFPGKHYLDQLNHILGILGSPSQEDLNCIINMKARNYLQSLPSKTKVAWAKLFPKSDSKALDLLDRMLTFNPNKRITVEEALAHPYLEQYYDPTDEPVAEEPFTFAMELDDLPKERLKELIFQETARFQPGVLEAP
# Chain of extracellular signal-regulated protein kinase 2 (purified, recombinant, activated ERK2) (P28482 2-360): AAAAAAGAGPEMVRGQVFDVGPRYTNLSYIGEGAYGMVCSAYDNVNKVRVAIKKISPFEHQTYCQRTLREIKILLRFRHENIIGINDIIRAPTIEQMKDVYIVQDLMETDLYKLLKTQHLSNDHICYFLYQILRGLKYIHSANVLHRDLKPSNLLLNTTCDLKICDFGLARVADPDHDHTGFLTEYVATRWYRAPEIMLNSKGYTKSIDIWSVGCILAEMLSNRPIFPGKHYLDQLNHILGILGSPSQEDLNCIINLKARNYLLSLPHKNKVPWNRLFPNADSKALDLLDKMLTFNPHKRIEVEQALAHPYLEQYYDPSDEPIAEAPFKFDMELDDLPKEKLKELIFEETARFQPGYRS
substance,measurement,setting,value
"extracellular signal-regulated protein kinase 1 (purified, activated ERK1)",RELATIVE ^32P INCORPORATION (% OF MBP),[1],< 1 % OF MBP
same,RELATIVE ^32P INCORPORATION (% OF MBP),myelin basic protein,100 % OF MBP
same,RELATIVE ^32P INCORPORATION (% OF MBP),[2],< 1 % OF MBP
same,RELATIVE ^32P INCORPORATION (% OF MBP),[3],13 % OF MBP
same,RELATIVE ^32P INCORPORATION (% OF MBP),[4],5 % OF MBP
same,RELATIVE ^32P INCORPORATION (% OF MBP),[5],28 % OF MBP
same,^32P incorporation,[5],^32P incorporation into MBPtide (SEQ ID NO: 2) was 330 nmol/min/mg
same,RELATIVE ^32P INCORPORATION (% OF MBP),[6],< 1 % OF MBP
"extracellular signal-regulated protein kinase 2 (purified, recombinant, activated ERK2)",Km(app),[7],1000 µM
same,"RELATIVE ^32P INCORPORATION (% 3.0 µmol/min/mg), Mean (% 3.0 µmol/min/mg)",[7],100
same,RELATIVE ^32P INCORPORATION (% 3.3 µmol/min/mg) (% 3.3 µmol/min/mg),[7],80
same,Vmax(app) Relative,[7],80 Relative
same,^32P incorporation,[7],100 percent ^32P incorporation reflects 3.0 µmol/min/mg
same,RELATIVE ^32P INCORPORATION (% 3.3 µmol/min/mg) (% 3.3 µmol/min/mg),[8],20
same,RELATIVE ^32P INCORPORATION (% 3.3 µmol/min/mg) (% 3.3 µmol/min/mg),[9],41
same,"RELATIVE ^32P INCORPORATION (% 3.0 µmol/min/mg), Mean (% 3.0 µmol/min/mg)",[10],215
same,"RELATIVE ^32P INCORPORATION (% 3.0 µmol/min/mg), Mean (% 3.0 µmol/min/mg)",peptide QATGPLSPGFRR-NH2,182
same,RELATIVE ^32P INCORPORATION (% 3.3 µmol/min/mg) (% 3.3 µmol/min/mg),[11],9
same,Km(app),[12],1400 µM
same,RELATIVE ^32P INCORPORATION (% 3.3 µmol/min/mg) (% 3.3 µmol/min/mg),[12],21
same,Vmax(app) Relative,[12],42 Relative
same,RELATIVE ^32P INCORPORATION (% 3.3 µmol/min/mg) (% 3.3 µmol/min/mg),[13],2
same,RELATIVE ^32P INCORPORATION (% 3.3 µmol/min/mg) (% 3.3 µmol/min/mg),[14],29
same,"RELATIVE ^32P INCORPORATION (% 3.0 µmol/min/mg), Mean (% 3.0 µmol/min/mg)",[15],107
same,"RELATIVE ^32P INCORPORATION (% 3.0 µmol/min/mg), Mean (% 3.0 µmol/min/mg)",[16],117
same,RELATIVE ^32P INCORPORATION (% 3.3 µmol/min/mg) (% 3.3 µmol/min/mg),[16],100
same,^32P incorporation,[16],100 percent 32p incorporation reflects 3.3 µmol/min/mg
same,RELATIVE ^32P INCORPORATION (% 3.3 µmol/min/mg) (% 3.3 µmol/min/mg),[17],1
same,RELATIVE ^32P INCORPORATION (% 3.3 µmol/min/mg) (% 3.3 µmol/min/mg),[18],1
same,Km(app),ERKtide,600 µM
same,Vmax(app) Relative,ERKtide,82 Relative
same,apparent Vmax,ERKtide,The apparent Vmax of ERKtide (SEQ ID NO: 23) was 9.4 µmol/min/mg
same,"RELATIVE ^32P INCORPORATION (% 3.0 µmol/min/mg), Mean (% 3.0 µmol/min/mg)",[19],143
same,Km(app),[4],1800 µM
same,RELATIVE ^32P INCORPORATION (% 3.3 µmol/min/mg) (% 3.3 µmol/min/mg),[4],7
same,Vmax(app) Relative,[4],9 Relative
same,Km(app),[5],2000 µM
same,Vmax(app) Relative,[5],46 Relative
same,"RELATIVE ^32P INCORPORATION (% 3.0 µmol/min/mg), Mean (% 3.0 µmol/min/mg)",[20],164
